From article PMC6786761

Substrate: CN1CCC[C@@H]1c1cccnc1
Test: oxygen electrode, initial rates
Assay type: biochemical, Paenarthrobacter nicotinovorans
Conditions: 0.1 M Na-HEPES pH 8.0, 0.1 M NaCl, 25 °C, 250 μM O2, apparent

B1: D-6-hydroxynicotine oxidase (DHNO) (Paenarthrobacter nicotinovorans) (protein)
chain: MSSKLATPLSIQGEVIYPDDSGFDAIANIWDGRHLQRPSLIARCLSAGDVAKSVRYACDNGLEISVRSGGHNPNGYATNDGGIVLDLRLMNSIHIDTAGSRARIGGGVISGDLVKEAAKFGLAAVTGMHPKVGFCGLALNGGVGFLTPKYGLASDNILGATLVTATGDVIYCSDDERPELFWAVRGAGPNFGVVTEVEVQLYELPRKMLAGFITWAPSVSELAGLLTSLLDALNEMADHIYPSVFVGVDENRAPSVTVCVGHLGGLDIAERDIARLRGLGRTVSDSIAVRSYDEVVALNAEVGSFEDGMSNLWIDREIAMPNARFAEAIAGNLDKFVSEPASGGSVKLEIEGMPFGNPKRTPARHRDAMGVLALAEWSGAAPGSEKYPELARELDAALLRAGVTTSGFGLLNNNSEVTAEMVAEVYKPEVYCRLAAVKREYDPENRFRHNYNIDPEGS
**Q.** Which Km does the source give for B1 here?
**A.** 840 ± 120 µM
